# Tests used:
# Experiment in all cases: cell-based or functional assay
# [1] = target: T1, human CD28 on human primary CD3+ T cells (human, UniProt P10747 19-220)
# [2] = target: T1, human CD28 on human primary CD3+ T cells; remark: listed apart in the source
# [3] = target: T1, human CD28 on human primary CD3+ T cells; remark: listed apart in the source
# [4] = target: T1, human CD28 on human primary CD3+ T cells; remark: listed apart in the source
binder,measurement,setting,value
"bsAb7945 (bispecific antibody, human IgG4 S228P, kappa) heavy 1: QVQLVQSGAEVKKPGSSVKVSCKASGGPFRSSSFSWVRQAPGQGLEWMGGIIPILGKTNYAQKFQGRITIVTDESTTTVYMELSSLRSEDTAVFYCVRGSSLFDYWGQGTLVTVSSASTKGPSVFPLAPCSRSTSESTAALGCLVKDYFPEPVTVSWNSGALTSGVHTFPAVLQSSGLYSLSSVVTVPSSSLGTKTYTCNVDHKPSNTKVDKRVESKYGPPCPPCPAPPVAGPSVFLFPPKPKDTLMISRTPEVTCVVVDVSQEDPEVQFNWYVDGVEVHNAKTKPREEQFNSTYRVVSVLTVLHQDWLNGKEYKCKVSNKGLPSSIEKTISKAKGQPREPQVYTLPPSQEEMTKNQVSLTCLVKGFYPSDIAVEWESNGQPENNYKTTPPVLDSDGSFFLYSRLTVDKSRWQEGNVFSCSVMHEALHNHYTQKSLSLSLGK heavy 2: QVQLQESGPGLVKPSETLSLTCTVSGGSISSYYWSWIRQPPGKGLEWIGYIYYSGITHYNPSLKSRVTISVDTSKIQFSLKLSSVTAADTAVYYCARWGVRRDYYYYGMDVWGQGTTVTVSSASTKGPSVFPLAPCSRSTSESTAALGCLVKDYFPEPVTVSWNSGALTSGVHTFPAVLQSSGLYSLSSVVTVPSSSLGTKTYTCNVDHKPSNTKVDKRVESKYGPPCPPCPAPPVAGPSVFLFPPKPKDTLMISRTPEVTCVVVDVSQEDPEVQFNWYVDGVEVHNAKTKPREEQFNSTYRVVSVLTVLHQDWLNGKEYKCKVSNKGLPSSIEKTISKAKGQPREPQVYTLPPSQEEMTKNQVSLTCLVKGFYPSDIAVEWESNGQPENNYKTTPPVLDSDGSFFLYSRLTVDKSRWQEGNVFSCSVMHEALHNRFTQKSLSLSPGK light: not shown",EC50 IL2 release; T cells + NALM-6/hPD-L1; bsAb7945 + Cemiplimab,[1],143 pM
same,EC50 IL2 release; T cells + NALM-6/hPD-L1; bsAb7945 + IgG4^P,[1],169 pM
same,EC50 IL2 release; T cells + NALM-6; bsAb7945 + Cemiplimab,[1],98.1 pM
same,EC50 IL2 release; T cells + HEK293/hCD20/hCD38; bsAb7945 + IgG4^P,[2],41.4 nM
same,EC50 IL2 release; T cells + HEK293/hCD20/hCD38; bsAb7945 + TAAxCD3,[2],5.02 pM
same,EC50 IL2 release; T cells + MOLP8; bsAb7945 + IgG4^P,[2],9.71 pM
same,EC50 T-cell proliferation; T cells + HEK293/hCD20/hCD38; bsAb7945 + IgG4^P,[3],45.6 nM
same,EC50 T-cell proliferation; T cells + HEK293/hCD20/hCD38; bsAb7945 + TAAxCD3,[3],0.894 pM
same,EC50 IFNγ release; T cells + HEK293/hCD20/hCD38; bsAb7945 + TAAxCD3,[4],123 pM
same,EC50 IFNγ release; T cells + MOLP8; bsAb7945 + TAAxCD3,[4],4.24 pM
"bsAb6031 (bispecific antibody, human IgG4 S228P, kappa) heavy 1: EVQLVESGGGLVQPGRSLRLSCAASGFTFDDYAMHWVRQAPGKGLEWVSGISWKSDNIGYADSVKGRFTISRDNAKNSLYLQMNSLRAEDTALYYCAKALGGWKFDYYYGMDVWGQGTTVTVSSASTKGPSVFPLAPCSRSTSESTAALGCLVKDYFPEPVTVSWNSGALTSGVHTFPAVLQSSGLYSLSSVVTVPSSSLGTKTYTCNVDHKPSNTKVDKRVESKYGPPCPPCPAPPVAGPSVFLFPPKPKDTLMISRTPEVTCVVVDVSQEDPEVQFNWYVDGVEVHNAKTKPREEQFNSTYRVVSVLTVLHQDWLNGKEYKCKVSNKGLPSSIEKTISKAKGQPREPQVYTLPPSQEEMTKNQVSLTCLVKGFYPSDIAVEWESNGQPENNYKTTPPVLDSDGSFFLYSRLTVDKSRWQEGNVFSCSVMHEALHNHYTQKSLSLSLGK heavy 2: EVQLVESGGGLVQPGGSLRLSCAASGFTFSRNNMHWVRQAPGKGLEYVSGISSNGGRTYYADSVKGRFTISRDNSKNTLYLQMGGLRAADMAVYFCTRDDELLSFDYWGQGTLVTVSSASTKGPSVFPLAPCSRSTSESTAALGCLVKDYFPEPVTVSWNSGALTSGVHTFPAVLQSSGLYSLSSVVTVPSSSLGTKTYTCNVDHKPSNTKVDKRVESKYGPPCPPCPAPPVAGPSVFLFPPKPKDTLMISRTPEVTCVVVDVSQEDPEVQFNWYVDGVEVHNAKTKPREEQFNSTYRVVSVLTVLHQDWLNGKEYKCKVSNKGLPSSIEKTISKAKGQPREPQVYTLPPSQEEMTKNQVSLTCLVKGFYPSDIAVEWESNGQPENNYKTTPPVLDSDGSFFLYSRLTVDKSRWQEGNVFSCSVMHEALHNRFTQKSLSLSPGK light: not shown",EC50 IL2 release; T cells + NALM-6/hPD-L1; bsAb6031 + Cemiplimab,[1],4.39 nM
same,EC50 IL2 release; T cells + NALM-6/hPD-L1; bsAb6031 + IgG4^P,[1],2.64 nM
same,EC50 IL2 release; T cells + NALM-6; bsAb6031 + Cemiplimab,[1],2.44 nM
same,EC50 IL2 release; T cells + NALM-6; bsAb6031 + IgG4^P,[1],1.68 nM
same,EC50 IL2 release; T cells + HEK293/hCD20/hCD38; bsAb6031 + TAAxCD3,[2],199 pM
same,EC50 IL2 release; T cells + MOLP8; bsAb6031 + IgG4^P,[2],653 pM
same,EC50 IL2 release; T cells + MOLP8; bsAb6031 + TAAxCD3,[2],1.02 nM
same,EC50 T-cell proliferation; T cells + HEK293/hCD20/hCD38; bsAb6031 + TAAxCD3,[3],143 pM
same,EC50 T-cell proliferation; T cells + MOLP8; bsAb6031 + IgG4^P,[3],467 pM
same,EC50 IFNγ release; T cells + HEK293/hCD20/hCD38; bsAb6031 + TAAxCD3,[4],294 pM
same,EC50 IFNγ release; T cells + MOLP8; bsAb6031 + TAAxCD3,[4],748 pM
